Data on 72 sequences can be found in the supplement of paper PMC10567573.

The nature of this series: protein stability index of a GFP-peptide fusion (GPS, HEK-293T) (PSI 1-6); higher = more stable.
Setting [1] is: treatment: DMSO, c terminus: a fixed tail appended.
Setting [2] is: treatment: MLN4924 1 uM, 8 h, c terminus: a fixed tail appended.

± gives the standard deviation.
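Also: 24-mer peptide tiles fused after GFP, lentivirally expressed, FACS-sorted into six equal bins by GFP/DsRed ratio, decoded by Illumina sequencing, PSI is the read-weighted mean bin number.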

Consider ACGVILYILLVGYPPFWDEDQHRL [CAMK2D], for which the protein stability index runs as follows: under setting [1], 2.6 ± 0.9; under setting [2], 2.63 ± 0.51.
As for CTDCGKSFNHNAHLTVHKRIHTGE [ZNF8], the protein stability index reads like this: under setting [1], 4.54 ± 0.21; under setting [2], 4.41 ± 0.21.
On to PARAPPEPPHNLFCAPGSWEWNEL [SERTAD3], for which the protein stability index by setting is: under setting [1], 3.36 ± 0.3; under setting [2], 3.32 ± 0.32.
In turn, LFQILSERQDMYQCLVEGCTEKFK [ZNF511] had a protein stability index under setting [1] of 2.24 ± 0.35 and a protein stability index under setting [2] of 2.54 ± 0.6.
On to NGISPIIIDNTNLHAWEMKPYAVM [N4BP2L1], for which the protein stability index under setting [1] came out at 2.46 ± 0.37 and the protein stability index under setting [2] amounted to 2.01 ± 0.25.
For the sequence RPPLRRVRMSADAMLKALLGSKHK [TNNI2], the protein stability index is 3.01 ± 0.28 under setting [1] and 3.21 ± 0.29 under setting [2].
For the sequence MLLQHQICKEVQAEQEPTRKLFEV [SPAG8], the protein stability index reads like this: under setting [1], 2.79 ± 0.26; under setting [2], 2.78 ± 0.23.
Take SVYAWGGGLGTPLRLPMLNTEVVQ [NEK8]: the protein stability index is, setting by setting: under setting [1], 2.63 ± 0.39; under setting [2], 2.69 ± 0.32.
For SATLSWKQPPLSTVPADGYILELD [TRIM9], the protein stability index by setting is: under setting [1], 3.52 ± 0.33; under setting [2], 3.63 ± 0.37.
For PEHRAFGSPFGLEEPQWVPDKECR [ZFYVE21], in that order: 4.57 ± 0.15 and 4.62 ± 0.28.
For WHDVQVSSAYVKTSEKLGEWNEKV [TPD52L2], in that order: 3.64 ± 0.26 and 3.8 ± 0.24.
As to IDKNRRKSCQACRLRKCYEVGMVK [ESR2], the protein stability index amounted to 2.75 ± 0.34 under setting [1] and 3.08 ± 0.17 under setting [2].
As to DPNTRPVGEKNCTGPPCDRQWTVS [ADAMTSL2], the protein stability index is, setting by setting: under setting [1], 4.89 ± 0.15; under setting [2], 4.86 ± 0.32.
For FKDLNESLNALEDQDLDALMADLV [APBB1IP], in that order: 3.19 ± 0.26 and 3.52 ± 0.26.
As for QIEGLNEELAYLKKNHEEEMKEFS [KRT15], the protein stability index by setting is: under setting [1], 5.25 ± 0.33; under setting [2], 5.3 ± 0.19.
In turn, LNMRSTYAKLAAVAVFFIMLIVYV [SEC22B] yielded a protein stability index under setting [1] of 3.14 ± 0.36 and a protein stability index under setting [2] of 3.19 ± 0.23.
With GIEEVTYENCLQALADVEVKYIVE [NLN], the protein stability index came out at 3.29 ± 0.37 under setting [1] and 3.34 ± 0.34 under setting [2].
Sequence LRPPHTSRGTSQTPNASSPGNPTA [LPCAT4] registered a protein stability index under setting [1] of 4.76 ± 0.17 and a protein stability index under setting [2] of 4.85 ± 0.21.
On to LIKTIETRNGEVVTESQKEQRSEL [PRPH], for which the protein stability index runs as follows: under setting [1], 4.91 ± 0.52; under setting [2], 4.67 ± 0.53.
Consider EWELLDPTQKALYNDVMQENYETV [ZNF75A], for which the protein stability index under setting [1] is 4.77 ± 0.086 and the protein stability index under setting [2] turned out to be 4.98 ± 0.19.
For NFFNQVLMLGKTSISDLSEHVFDL [PDS5B], in that order: 2.56 ± 0.54 and 2.63 ± 0.32.
As for LVSQSNDLSSLRAKYPHDVVNHLS [SPACA9], the protein stability index is 3.09 ± 0.19 under setting [1] and 3.19 ± 0.21 under setting [2].
Take YALDMQQSNLEPLSPMTASSFLSF [FEM1A]: the protein stability index is, setting by setting: under setting [1], 2.6 ± 0.23; under setting [2], 2.47 ± 0.085.
For ERLTAPEILLHPWFESVLEPGYID [TRIB1], the protein stability index by setting is: under setting [1], 3.26 ± 0.21; under setting [2], 3.3 ± 0.3.
In the case of QGEEVAQRSTVFKTTIPEEEEEEE [LMNB1], the protein stability index is 5.63 ± 0.19 under setting [1] and 5.64 ± 0.25 under setting [2].
As to GNSSGSDVTSLSSQLPDTPNSMVP [ISL2], the protein stability index by setting is: under setting [1], 5.13 ± 0.2; under setting [2], 4.9 ± 0.32.
For HLEKKGPQVRDWSHYFKIIEDLRA [KRT18], in that order: 2.41 ± 0.13 and 2.69 ± 0.14.
Take DFKDFYPAIADLFAESLQCKVDCE [P3H4]: the protein stability index under setting [1] turned out to be 2.84 ± 0.4 and the protein stability index under setting [2] was 3.16 ± 0.62.
PDARPHRRPHELLPVGGRLPGPTR [HAGHL]: the protein stability index came to 4.6 ± 0.14 under setting [1] and 4.57 ± 0.3 under setting [2].
The like results for ETELALVKESGERKVTDSISKSLE [DLC1] were, in that order, 5.56 ± 0.35 and 5.13 ± 0.44.
The like results for LVQLRGRLTSQDWERVHLIVAGGY [ALG2] were, in that order, 2.03 ± 0.62 and 2.44 ± 0.58.
For FVLAEDGRRCKKCTEGPIDLVFVI [MATN2], in that order: 3.06 ± 0.44 and 2.5 ± 0.31.
For the sequence RKMEVEELSPLALGRFSLTPAEGD [CDC25B], the protein stability index runs as follows: under setting [1], 4.66 ± 0.36; under setting [2], 4.79 ± 0.13.
The like results for GRAQDDVSEWASKAKANGITMYAV [MATN2] were, in that order, 2.56 ± 0.36 and 2.62 ± 0.39.
Take IGLRQHHCRKCGKAVCGKCSSKRS [WDFY2]: the protein stability index amounted to 4.08 ± 0.17 under setting [1] and 4.15 ± 0.26 under setting [2].
The like results for LVAEVPKEHWTPEGHSIVGFAMYY [SAT1] were, in that order, 2.81 ± 0.58 and 2.57 ± 0.39.
Regarding QNLLGFTPEELHAILGVQPDTED [ETS2], the protein stability index worked out at 4.78 ± 0.39 (treatment: DMSO, c terminus: native) and 4.85 ± 0.34 (treatment: MLN4924 1 uM, 8 h, c terminus: native).
Regarding LLFSLTQFSVVSVVAYLALAALSA [RTN1], the protein stability index is 3.4 ± 0.54 under setting [1] and 3.24 ± 0.058 under setting [2].
With LWENTRFTDCSFFVRGQEFKAHKS [SPOPL], the protein stability index came to 2.74 ± 0.32 under setting [1] and 2.98 ± 0.25 under setting [2].
Regarding KGKKLYPVVSAVWGHCEIRMRYLN [SPSB1], the protein stability index came to 2.23 ± 0.35 under setting [1] and 2.26 ± 0.23 under setting [2].
On to EQKVLSRLVESLSTQIRALTEQQE [RASAL3], for which the protein stability index reads like this: under setting [1], 2.65 ± 0.046; under setting [2], 2.76 ± 0.19.
For SQSLWNRLSVLLNLLPAAGELQES [SMG5], the protein stability index under setting [1] turned out to be 2.75 ± 0.37 and the protein stability index under setting [2] turned out to be 2.25 ± 0.18.
In the case of AQDPDVGTNTVSFYTLSPNSHFSL [PCDHGC5], the protein stability index by setting is: under setting [1], 2.57 ± 0.26; under setting [2], 2.61 ± 0.3.
CQRSRYRDSLTQPDEEPMHYGNIM [RSPH3]: the protein stability index is, setting by setting: under setting [1], 3.37 ± 0.39; under setting [2], 3.45 ± 0.3.
Take VPRAGPLTVNTEAQQLLREFEEAT [FOXJ1]: the protein stability index by setting is: under setting [1], 4.96 ± 0.19; under setting [2], 4.9 ± 0.26.
For LLKRMESLKLKSSHHSKHKAPSKL [DLC1], the protein stability index by setting is: under setting [1], 3.03 ± 0.36; under setting [2], 3.1 ± 0.51.
For SLFSPVTEDSPLGTVVALLNVHDL [PCDHGA10], the protein stability index reads like this: under setting [1], 2.31 ± 0.2; under setting [2], 2.32 ± 0.3.
DFLAEKESLTEDEATQFLKQILDG [DAPK3] gave a protein stability index under setting [1] of 4.4 ± 0.55.
Regarding GLQILGHTLRASMRELGLLIFFLF [KCNA4], the protein stability index by setting is: under setting [1], 2.95 ± 0.6; under setting [2], 2.96 ± 0.25.
Turning to NLSLVCLPRSEDDDCDDDDDDAQI [DRICH1], the protein stability index runs as follows: under setting [1], 5.42 ± 0.28; under setting [2], 5.5 ± 0.26.
For RRKSEAGSGAASSSGEDKENDGFV [CDC25B], in that order: 5.42 ± 0.29 and 5.49 ± 0.18.
As to VGSVALTALVTVSSEEFEDKWFRK [C8orf76], the protein stability index under setting [1] was 2.26 ± 0.19 and the protein stability index under setting [2] turned out to be 2.35 ± 0.21.
As to YERLARILLQEIPIRSISLRSCYF [FBXO39], the protein stability index was determined as 2.92 ± 0.28 under setting [1] and 2.56 ± 0.26 under setting [2].
Turning to WPLRGKREAMLEMLLQHQICKEVQ [SPAG8], the protein stability index under setting [1] stood at 2.17 ± 0.4 and the protein stability index under setting [2] turned out to be 2.11 ± 0.24.
SQIETLTSVFQKKLCTAHMCSTLE [MATN2] came in with a protein stability index under setting [1] of 2.03 ± 0.2 and a protein stability index under setting [2] of 2.81 ± 0.74.
Consider MECQPESSISHRFHKDCASRVNNA [EHMT1], for which the protein stability index came out at 4.28 ± 0.38 under setting [1] and 4.15 ± 0.39 under setting [2].
The like results for EVFYYSCEYNFVSPSKSFWTRITC [CFHR2] were, in that order, 3.39 ± 0.15 and 2.31 ± 0.27.
Consider KLQVSQQEDITKSLLVTELGSSRT [IMPA1], for which the protein stability index amounted to 4.18 ± 0.28 under setting [1] and 4.28 ± 0.25 under setting [2].
The like results for DYLSGVLILASELSRLSVNSVTAG [TSN] were, in that order, 3.54 ± 0.61 and 2.68 ± 0.4.
Regarding PLDSKENLENPMRRIHSLPQKLLG [CDC25A], the protein stability index is, setting by setting: under setting [1], 3.29 ± 0.32; under setting [2], 3.79 ± 0.16.
On to GRYRDARMNDLHYLNLDTWEWNEL [KLHDC2], for which the protein stability index runs as follows: under setting [1], 2.86 ± 0.24; under setting [2], 2.88 ± 0.25.
Consider FDVGGQRSERKKWIHCFEGVTAII [GNAI1], for which the protein stability index is 2.29 ± 0.44 under setting [1] and 1.95 ± 0.37 under setting [2].
For LNKKLKSYSLSRKKIVHYTCFDQR [CDC14A], in that order: 2.39 ± 0.26 and 2.35 ± 0.3.
Consider IDGQGRPRTSQSEETRVWHRRDGK [CAMK2B], for which the protein stability index was found to be 5.2 ± 0.2 under setting [1] and 5.24 ± 0.11 under setting [2].
On to SKKEGKRQGPKEPPRKSGSFHSSG [PBXIP1], for which the protein stability index was 4.98 ± 0.32 under setting [1] and 5.2 ± 0.2 under setting [2].
For EGAIVMARGRHVGSSETNLLQHLL [PYCR3], the protein stability index runs as follows: under setting [1], 3.25 ± 0.78; under setting [2], 3.18 ± 0.08.
Turning to AERYGLSGSDVLDNVAYARAFNTD [RAD51], the protein stability index was 3.99 ± 0.2 under setting [1] and 4.07 ± 0.32 under setting [2].
As to YRQDDPSYRSFHSGGYGQDALGMD [CTNNB1], the protein stability index is, setting by setting: under setting [1], 3.89 ± 0.35; under setting [2], 4.03 ± 0.14.
On to ARVKAFNKTGVSPYSKTLVLQTSE [TRIM9], for which the protein stability index by setting is: under setting [1], 3.2 ± 0.28; under setting [2], 3.34 ± 0.21.
For DETLRSGELLNMIVAVIDSAQLQE [INTS3], the protein stability index reads like this: under setting [1], 2.84 ± 0.18; under setting [2], 3.06 ± 0.39.
Take PSPTSPPPPELMDVSLVGGPADCS [DYRK1B]: the protein stability index runs as follows: under setting [1], 5.09 ± 0.1; under setting [2], 5.14 ± 0.22.
As to LKPFFMKEVGSHFDDFVTNLIEKS [SOAT1], the protein stability index is 2.48 ± 0.32 under setting [1] and 2.88 ± 0.13 under setting [2].
